Reference: patent US20100041597A1, “PEPTIDES TARGETED TO PROTEIN KINASE C ISOFORMS AND USES THEREOF” (priority 2005, published 2010)

What was measured:
PKC-βII = PKC-βII (Homo sapiens, UniProt P05771); assay: ELISA-based competitive binding assay with purified PKC isoform; set-up: key to Affinity for PKC isoform βII: —: no detectable affinity; Low to very low affinity at 10X or 20X or both PRE concentrations in at least one cell line in the cell extract assay; Low affinity in purified isoform assay.; Moderate affinity at 10X or 20X or both PRE concentrations in at least one cell line in the cell extract assay.; High affinity at 10X or 20X or both PRE concentrations in at least one cell line in the cell extract assay; High affinity in purified isoform assay; conditions: for inhibition at 50 µM / inhibition at 100 µM / inhibition at 200 µM / calculated binding capacity (100-% n) after subtraction of the DMSO apparent binding capacity: purified PKC-βII; for inhibition at 50 µM / inhibition at 100 µM / inhibition at 200 µM: read-out: calculated binding capacity (100-% n) after subtraction of the DMSO apparent binding capacity; for Affinity for PKC isoform βII: Purified isoform, Table 20
Chain of PKC-βII (P05771 1-673 isoform P05771-2): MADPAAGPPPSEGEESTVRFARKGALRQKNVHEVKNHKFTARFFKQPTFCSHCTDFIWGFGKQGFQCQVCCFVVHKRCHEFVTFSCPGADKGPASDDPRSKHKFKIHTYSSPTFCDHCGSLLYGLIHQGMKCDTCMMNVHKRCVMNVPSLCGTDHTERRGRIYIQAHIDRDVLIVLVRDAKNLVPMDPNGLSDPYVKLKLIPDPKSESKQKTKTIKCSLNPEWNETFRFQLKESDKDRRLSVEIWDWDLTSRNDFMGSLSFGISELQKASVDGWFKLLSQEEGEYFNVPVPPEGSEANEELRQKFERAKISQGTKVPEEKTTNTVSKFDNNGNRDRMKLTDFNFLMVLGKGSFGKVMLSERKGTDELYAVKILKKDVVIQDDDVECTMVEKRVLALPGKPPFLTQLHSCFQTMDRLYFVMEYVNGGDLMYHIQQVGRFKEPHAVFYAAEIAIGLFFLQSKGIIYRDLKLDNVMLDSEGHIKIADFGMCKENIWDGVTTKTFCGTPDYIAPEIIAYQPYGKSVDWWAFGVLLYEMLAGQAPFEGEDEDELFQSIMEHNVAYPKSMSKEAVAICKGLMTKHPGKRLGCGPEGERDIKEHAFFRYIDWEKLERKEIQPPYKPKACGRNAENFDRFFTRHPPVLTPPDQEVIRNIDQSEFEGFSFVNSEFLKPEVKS
Method: (§1) Peptides PRE 1, 2, 3, 4, 5, 6, 7, 8, 9, 10, 11, 12 and 13 (see Table 3) were tested for their ability to interfere with binding of PKC isoform-specific antibodies to their target PKC isoforms using a competitive binding assay and purified PKC isoforms.
(§2) Procedure: Competitive binding was assessed using a 96 well plate ELISA-based assay as described below.
(§3) Greiner 96 well ELISA plates were coated with the appropriate PKC isoform diluted in PBSN (PBS with Calcium/Magnesium+0.05% Sodium azide w/w). 50 μL/well at 250 ng/mL was used. Control wells contained PBSN only. Plates were incubated overnight at 4° C.
(§4) The plates were washed 3 times with 200 μL of dH2O per well, then 100 μL of blocking solution was added per well and the plate incubated for 1 h at 37° C. The washing steps with dH2O were repeated and 50 μL of the appropriate PRE solution (PRE stock solution [20 mM in DMSO] diluted in PBSN) was added and the plate incubated for 1 h at room temperature.
(§5) After incubation, 5 μL of 1.1:400 anti-PKC (isoform specific antibody) was added per well (to provide a final concentration of 1:4000). For PKC-epsilon, 1.1:800 dilution was used and for PKC-zeta a 1.1:100 dilution was used due to high and low binding affinity, respectively. The plates were then incubated 1 h at room temperature, followed by washing with dH2O as described above.
(§6) 50 μL of 1:1000 dilution of Alkaline Phosphatase (AP) conjugated antibody (anti-rabbit for all except zeta, which was anti-goat) was then added and the plate incubated for 1 h at room temperature. Washing with dH2O was then repeated. Finally, 100 μL of pNPP solution in pNPP buffer (2 mM MgCl2, 100 mM Sodium bicarbonate in water, pH 9.8) was added to all wells and incubated for 8 minutes for α, βI, βII ε, and ζ, or for 15-20 mins for […] (until sufficient coloration is observed). The reaction was stopped by addition of Stop solution (2N NaOH) and the absorbance at 405 nm was read on a Galaxy Plate reader.
(§7) Controls were PKC without PRE; blank controls, and controls containing the final concentrations of DMSO used for solubilizing the PREs. The non-specific binding capacity related to DMSO was also measured.
(§8) The antibodies used were as follows: anti-PKC α (Cat. No. SC-208); anti-PKC βI (Cat. No. SC-209); anti-PKC βII (Cat. No. SC-210); anti-PKC δ (Cat. No. SC-213); anti-PKC ε (Cat. No. SC-214); anti-PKC ζ (Cat. No. SC-216-G) (all from Santa Cruz Biotechnology, Inc.). The AP-conjugated antibodies were obtained from Jackson Immuno Research Laboratories (West Grove, Pa.).
(§9) Calculations: The OD values measured at 405 nm represent the free PKC coated per well.
(§10) OD405 PKC alone−Blank OD405 of each sample=OD405 coated isoform
(§11) (OD405 of sample X/OD405 coated isoform)×100=% n that represents the percentage of X binding compared to control.
(§12) 100-% n measures the relative binding capacity of X towards the tested isoform.
(§13) The apparent binding capacity of the DMSO samples was then subtracted from X binding capacity.
(§14) All measurements were made in triplicate and the values in the table represent the averaged calculated binding capacity values after subtraction of the DMSO apparent binding capacity (averaged from 12 values, respectively 10.80, 11.20 and 16.40 corresponding to the concentrations of DMSO used to dilute the […] at 200, 100 and 50 μM respectively). The results allow for quantitative comparison of the binding capacity of each PRE towards an individual isoform within each table, but not among isoforms due to differences in sensitivity of the specific antibodies toward the secondary antibody. This applies particularly to PKC-delta. As noted above, the colour development duration was increased 2-3 times and, as a result, the OD405 measurements may be overestimated for this isoform.

PKC-ζ = molecular target: T1, PKC-ζ (Homo sapiens, UniProt Q05513); assay: as above; set-up: key to Affinity for PKC isoform ζ: —: no detectable affinity; Low to very low affinity at 10X or 20X or both PRE concentrations in at least one cell line in the cell extract assay; Low affinity in purified isoform assay.; Moderate affinity at 10X or 20X or both PRE concentrations in at least one cell line in the cell extract assay.; High affinity at 10X or 20X or both PRE concentrations in at least one cell line in the cell extract assay; High affinity in purified isoform assay; conditions: for inhibition at 50 µM / inhibition at 100 µM / inhibition at 200 µM / calculated binding capacity (100-% n) after subtraction of the DMSO apparent binding capacity: purified PKC-ζ; for inhibition at 50 µM / inhibition at 100 µM / inhibition at 200 µM: read-out: calculated binding capacity (100-% n) after subtraction of the DMSO apparent binding capacity; for Affinity for PKC isoform ζ: Purified isoform, Table 20
T1 sequence (Q05513 1-592): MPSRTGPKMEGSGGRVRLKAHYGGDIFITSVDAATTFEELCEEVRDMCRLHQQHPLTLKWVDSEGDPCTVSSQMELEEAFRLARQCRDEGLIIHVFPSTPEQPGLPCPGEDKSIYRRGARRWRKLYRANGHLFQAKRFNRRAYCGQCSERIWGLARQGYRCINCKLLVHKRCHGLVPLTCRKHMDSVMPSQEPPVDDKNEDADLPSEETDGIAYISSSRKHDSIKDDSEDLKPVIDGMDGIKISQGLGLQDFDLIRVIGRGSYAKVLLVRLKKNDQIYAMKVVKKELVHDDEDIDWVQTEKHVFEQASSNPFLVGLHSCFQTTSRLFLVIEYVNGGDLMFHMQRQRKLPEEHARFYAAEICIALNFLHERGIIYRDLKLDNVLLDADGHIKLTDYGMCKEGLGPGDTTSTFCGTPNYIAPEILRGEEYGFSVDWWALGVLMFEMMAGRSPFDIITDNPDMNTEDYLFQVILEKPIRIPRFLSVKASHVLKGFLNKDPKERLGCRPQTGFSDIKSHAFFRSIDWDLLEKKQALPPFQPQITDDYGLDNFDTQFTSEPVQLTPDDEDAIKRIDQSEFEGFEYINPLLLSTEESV
Method: as §1, §2, §3, §4, §5, §6, §7, §8, §9, §10, §11, §12, §13, §14

Substance: Ac-AKGIQEVKGGDAQNLIGISI-NH2 [PRE 3]
- inhibition at 50 µM (PKC-βII; PRE 50 μM): 0%
- inhibition at 100 µM (PKC-βII; PRE 100 μM): 0%
- inhibition at 200 µM (PKC-βII; PRE 200 μM): 3.72%
- Affinity for PKC isoform βII (PKC-βII): —
- inhibition at 50 µM (PKC-ζ; PRE 50 μM): 14%
- inhibition at 100 µM (PKC-ζ; PRE 100 μM): 23.9%
- inhibition at 200 µM (PKC-ζ; PRE 200 μM): 29.1%
- Affinity for PKC isoform ζ (PKC-ζ): H
- targeting of PKC-ζ (PKC-ζ; purified isoform, Tables 14-19): targeted by PRE 3 only

Substance: Ac-AKGIQEVKGGKDAQNLIGISI-NH2 [PRE 5]
- inhibition at 50 µM (PKC-βII; PRE 50 μM): 0%
- inhibition at 100 µM (PKC-βII; PRE 100 μM): 0%
- inhibition at 200 µM (PKC-βII; PRE 200 μM): 0%
- Affinity for PKC isoform βII (PKC-βII): —
- inhibition at 50 µM (PKC-ζ; PRE 50 μM): 0%
- inhibition at 100 µM (PKC-ζ; PRE 100 μM): 0%
- inhibition at 200 µM (PKC-ζ; PRE 200 μM): 0%
- Affinity for PKC isoform ζ (PKC-ζ): —

Substance: Ac-ISIGILNQADK-NH2 [PRE 10]
- Affinity for PKC isoform βII (PKC-βII): L
- Affinity for PKC isoform ζ (PKC-ζ): —

Substance: Ac-ISIGILQNADK-NH2 [PRE 7]
- calculated binding capacity (100-% n) after subtraction of the DMSO apparent binding capacity (PKC-βII; PRE 50 μM): 5.42
- calculated binding capacity (100-% n) after subtraction of the DMSO apparent binding capacity (PKC-βII; PRE 100 μM): 11.07
- calculated binding capacity (100-% n) after subtraction of the DMSO apparent binding capacity (PKC-βII; PRE 200 μM): 2.59
- Affinity for PKC isoform βII (PKC-βII): —
- Affinity for PKC isoform ζ (PKC-ζ): —

Substance: Ac-KDANQLIGISI-NH2 [PRE 6]
- Affinity for PKC isoform βII (PKC-βII): —
- Affinity for PKC isoform ζ (PKC-ζ): —

Substance: Ac-KDAQNLI-NH2 [PRE 12]
- calculated binding capacity (100-% n) after subtraction of the DMSO apparent binding capacity (PKC-βII; PRE 50 μM): 4.55
- Affinity for PKC isoform βII (PKC-βII): —
- calculated binding capacity (100-% n) after subtraction of the DMSO apparent binding capacity (PKC-ζ; PRE 50 μM): 4.20
- calculated binding capacity (100-% n) after subtraction of the DMSO apparent binding capacity (PKC-ζ; PRE 100 μM): 8.77
- calculated binding capacity (100-% n) after subtraction of the DMSO apparent binding capacity (PKC-ζ; PRE 200 μM): 0.33
- Affinity for PKC isoform ζ (PKC-ζ): —

Substance: Ac-KDAQNLIGISI-NH2 [PRE 4, Ac-KDAQNLIGISI-NH2]
- inhibition at 50 µM (PKC-βII; PRE 50 μM): 2.69%
- inhibition at 100 µM (PKC-βII; PRE 100 μM): 13.5%
- inhibition at 200 µM (PKC-βII; PRE 200 μM): 1.18%
- Affinity for PKC isoform βII (PKC-βII): L
- inhibition at 50 µM (PKC-ζ; PRE 50 μM): 0%
- inhibition at 100 µM (PKC-ζ; PRE 100 μM): 0%
- inhibition at 200 µM (PKC-ζ; PRE 200 μM): 5.85%
- Affinity for PKC isoform ζ (PKC-ζ): —

Substance: Ac-RDAQNLI-NH2 [PRE 13]
- Affinity for PKC isoform βII (PKC-βII): —
- Affinity for PKC isoform ζ (PKC-ζ): —

Substance: Ac-RDAQNLIGISI-NH2 [PRE 11]
- calculated binding capacity (100-% n) after subtraction of the DMSO apparent binding capacity (PKC-βII; PRE 50 μM): 7.14
- calculated binding capacity (100-% n) after subtraction of the DMSO apparent binding capacity (PKC-βII; PRE 100 μM): 11.04
- calculated binding capacity (100-% n) after subtraction of the DMSO apparent binding capacity (PKC-βII; PRE 200 μM): 6.40
- Affinity for PKC isoform βII (PKC-βII): —
- Affinity for PKC isoform ζ (PKC-ζ): —

Substance: Ac-isigilgnadk-NH2 [PRE 9]
- calculated binding capacity (100-% n) after subtraction of the DMSO apparent binding capacity (PKC-βII; PRE 50 μM): 8.14
- calculated binding capacity (100-% n) after subtraction of the DMSO apparent binding capacity (PKC-βII; PRE 100 μM): 0.3
- Affinity for PKC isoform βII (PKC-βII): H
- targeting of PKC-βII (PKC-βII; purified isoform, Tables 14-19): targeted most strongly
- Affinity for PKC isoform ζ (PKC-ζ): —

Substance: ILEDKGGDAQNLIGISI [PRE 8]
- calculated binding capacity (100-% n) after subtraction of the DMSO apparent binding capacity (PKC-βII; PRE 50 μM): 1.11
- Affinity for PKC isoform βII (PKC-βII): —
- Affinity for PKC isoform ζ (PKC-ζ): —

Substance: RRKKGGKDFVVKR [PRE 1]
- Affinity for PKC isoform βII (PKC-βII): —
- calculated binding capacity (100-% n) after subtraction of the DMSO apparent binding capacity (PKC-ζ; PRE 50 μM): 4.11
- Affinity for PKC isoform ζ (PKC-ζ): —
